Results as given in US20240116985A1 (published 2024).
Starred links: 1 amine or outer side, 2 acyl side, 3 side chain; linkers in the order of their positions; H or OH if unused. Positions of bridges follow the written chain, without caps; N, C: chain ends. Non-standard residues stand in square brackets, D forms with d. Primed or numbered codes have the meaning given here. PyrS2″ = (S)-3-amino-1-((pent-4-en-1-yloxy)carbonyl)pyrrolidine-3-carboxylic acid (stapling residue), C=CCCCOC(=O)N1CC[C@@](N[*:1])(C(=O)[*:2])C1; B5(5) = 2,2-bis(4-pentenyl)glycine, 2-amino-2-(pent-4-en-1-yl)hept-6-enoic acid (stitching residue), C=CCCCC(CCCC=C)(N[*:1])C(=O)[*:2]; TfeGA = (S)-2-amino-3-((carboxymethyl)(2,2,2-trifluoroethyl)amino)propanoic acid, O=C([C@H](CN(CC(=O)[*:3])CC(F)(F)F)N[*:1])[*:2]; (EtSSpy)AspE = (S)-2-amino-4-oxo-4-(2-(pyridin-2-yldisulfaneyl)ethoxy)butanoic acid, O=C(C[C@H](N[*:1])C(=O)[*:2])OCCSSc1ccccn1; PyrS2 = (S)-3-amino-1-((pent-4-en-1-yloxy)carbonyl)pyrrolidine-3-carboxylic acid, C=CCCCOC(=O)N1CC[C@@](N[*:1])(C(=O)[*:2])C1; AspSH = (S)-2-amino-4-mercapto-4-oxobutanoic acid, O=C(C[C@H](N[*:1])C(=O)[*:2])S[*:3]; B5 = 2-amino-2-(pent-4-en-1-yl)hept-6-enoic acid, C=CCCCC(CCCC=C)(N[*:1])C(=O)[*:2]; Phe(2-Cl) = N[C@@H](Cc1ccccc1Cl)C(=O)O; Phe(2-Me) = Cc1ccccc1C[C@H](N)C(=O)O; Bta = N[C@@H](Cc1csc2ccccc12)C(=O)O; Lys(iPr) = CC(C)NCCCC[C@H](N)C(=O)O; αAllylPro = C=CC[C@@]1(C(=O)O)CCCN1; tBuAla = CC(C)(C)C[C@H](N)C(=O)O; 3Thi = N[C@@H](Cc1ccsc1)C(=O)O; PyrS2(4) = not defined here; TfeGA″ = not defined here

T1: B-cat-Halo (UniProt P35222 1-781)
T1 sequence (looked up): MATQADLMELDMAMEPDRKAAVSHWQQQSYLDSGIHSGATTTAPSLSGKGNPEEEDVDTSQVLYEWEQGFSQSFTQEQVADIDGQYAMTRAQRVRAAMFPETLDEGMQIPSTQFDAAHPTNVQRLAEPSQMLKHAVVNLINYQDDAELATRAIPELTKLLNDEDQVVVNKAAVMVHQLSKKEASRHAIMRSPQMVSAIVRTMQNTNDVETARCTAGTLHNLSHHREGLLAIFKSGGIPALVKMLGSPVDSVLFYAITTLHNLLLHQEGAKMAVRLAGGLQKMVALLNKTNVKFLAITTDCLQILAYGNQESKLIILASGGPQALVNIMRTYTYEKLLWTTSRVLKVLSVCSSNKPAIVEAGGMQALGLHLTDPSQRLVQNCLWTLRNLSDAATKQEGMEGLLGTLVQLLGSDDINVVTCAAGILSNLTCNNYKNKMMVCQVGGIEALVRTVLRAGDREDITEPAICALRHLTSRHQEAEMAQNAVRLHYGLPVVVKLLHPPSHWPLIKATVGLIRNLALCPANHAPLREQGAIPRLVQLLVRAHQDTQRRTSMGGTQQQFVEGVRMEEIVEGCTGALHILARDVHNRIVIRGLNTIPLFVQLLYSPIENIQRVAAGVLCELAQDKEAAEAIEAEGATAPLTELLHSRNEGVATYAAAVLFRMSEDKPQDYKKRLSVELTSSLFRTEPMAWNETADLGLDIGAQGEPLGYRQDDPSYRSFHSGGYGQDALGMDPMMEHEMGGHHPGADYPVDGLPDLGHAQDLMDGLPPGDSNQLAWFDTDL

T2: B-cat-Halo (beta-catenin HaloTag fusion expressed in HEK293 cells) (UniProt P35222 1-781)
T2 sequence (looked up): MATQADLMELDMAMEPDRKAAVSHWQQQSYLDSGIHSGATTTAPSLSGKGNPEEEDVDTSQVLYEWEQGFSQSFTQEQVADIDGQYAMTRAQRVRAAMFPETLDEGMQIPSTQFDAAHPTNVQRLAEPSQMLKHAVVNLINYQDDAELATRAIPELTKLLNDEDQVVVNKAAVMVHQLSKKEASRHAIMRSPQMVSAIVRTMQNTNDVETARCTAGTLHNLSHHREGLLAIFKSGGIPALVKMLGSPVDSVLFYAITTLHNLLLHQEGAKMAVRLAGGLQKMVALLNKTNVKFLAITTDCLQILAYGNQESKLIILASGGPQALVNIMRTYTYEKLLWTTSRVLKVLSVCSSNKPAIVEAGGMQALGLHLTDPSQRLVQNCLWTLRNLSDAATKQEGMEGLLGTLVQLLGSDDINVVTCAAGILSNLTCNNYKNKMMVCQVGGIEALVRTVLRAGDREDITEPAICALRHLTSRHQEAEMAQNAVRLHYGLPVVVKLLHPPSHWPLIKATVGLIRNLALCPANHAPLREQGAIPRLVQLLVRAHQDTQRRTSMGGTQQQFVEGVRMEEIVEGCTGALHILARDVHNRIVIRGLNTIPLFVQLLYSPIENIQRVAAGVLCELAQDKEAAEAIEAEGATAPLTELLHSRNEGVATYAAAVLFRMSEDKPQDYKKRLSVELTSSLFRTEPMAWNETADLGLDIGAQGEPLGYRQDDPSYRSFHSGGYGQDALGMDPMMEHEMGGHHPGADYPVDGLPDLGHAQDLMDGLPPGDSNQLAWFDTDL

B1: I-1748 (peptide)
peptide: Ac-[αAllylPro]D[tBuAla][B5(5)]D[TfeGA]AAFL[PyrS2″][3Thi][Bta]L-NH2
modifications: staple 1-4, 4-11
B2: I-1750 (peptide)
peptide: Ac-[αAllylPro]D[tBuAla][B5(5)]D[TfeGA]AAFL[PyrS2″][3Thi][Bta]F-NH2
modifications: staple 1-4, 4-11
B3: I-1759 (peptide)
peptide: Ac-[αAllylPro]D[tBuAla][B5(5)]D[TfeGA][Lys(iPr)]AFL[PyrS2″][3Thi][Bta]L-NH2
modifications: staple 1-4, 4-11
B4: I-1760 (peptide)
peptide: Ac-[αAllylPro]D[tBuAla][B5(5)]D[TfeGA][Lys(iPr)]AFT[PyrS2″][3Thi][Bta]L-NH2
modifications: staple 1-4, 4-11
B5: I-1761 (peptide)
peptide: Ac-[αAllylPro]D[tBuAla][B5(5)]D[TfeGA][Lys(iPr)]AFL[PyrS2″][3Thi][Bta]F-NH2
modifications: staple 1-4, 4-11
B6: I-1762 (peptide)
peptide: Ac-[αAllylPro]D[tBuAla][B5(5)]D[TfeGA″][Lys(iPr)]AFT[PyrS2(4)][3Thi][Bta]F-NH2
modifications: staple 1-4, 4-11; not fully specified; reading uncertain
B7: I-1763 (peptide)
peptide: Ac-[αAllylPro]D[tBuAla][B5(5)]D[TfeGA][Lys(iPr)]AFL[PyrS2″][3Thi][Bta]V-NH2
modifications: staple 1-4, 4-11
B8: I-1764 (peptide)
peptide: Ac-[αAllylPro]D[tBuAla][B5(5)]D[TfeGA][Lys(iPr)]AFT[PyrS2″][3Thi][Bta]V-NH2
modifications: staple 1-4, 4-11
B9: I-1768 (peptide)
peptide: Ac-[αAllylPro]D[tBuAla][B5(5)]D[TfeGA][Lys(iPr)]AFT[PyrS2″][3Thi][Bta]F-NH2
modifications: staple 1-4, 4-11; also: -CH=CH- in each staple reduced to -CH2-CH2-
B10: I-1770 (peptide)
peptide: Ac-[αAllylPro]D[tBuAla][B5(5)]D[TfeGA][Lys(iPr)]AFT[PyrS2″][3Thi][Bta]V-NH2
modifications: staple 1-4, 4-11; also: -CH=CH- in each staple reduced to -CH2-CH2-
B11: I-1722 (peptide)
peptide: Ac-[αAllylPro][AspSH][tBuAla][B5]DDAAFN[PyrS2][Phe(2-Cl)][Bta]Q-NH2
modifications: staple 1-4, 4-11; not fully specified
B12: I-1724 (peptide)
peptide: Ac-[αAllylPro][(EtSSpy)AspE][tBuAla][B5]DDAAFN[PyrS2][Phe(2-Cl)][Bta]Q-NH2
modifications: staple 1-4, 4-11; not fully specified
B13: I-1725 (peptide)
peptide: Ac-[αAllylPro]D[tBuAla][B5]D[TfeGA]AAFL[PyrS2][Phe(2-Me)][Bta]Q-NH2
modifications: staple 1-4, 4-11
B14: I-1726 (peptide)
peptide: Ac-[αAllylPro]D[tBuAla][B5]D[TfeGA]AAFL[PyrS2][Phe(2-Me)][Bta]Q-NH2
modifications: staple 1-4, 4-11; also: -CH=CH- in each staple reduced to -CH2-CH2-

Each binder was assayed against T1, B-cat-Halo (assay: cell-based or functional assay).
B1 was tested, and the “NanoBRET Abs IC50” value was 20.2 µM. With B2 the “NanoBRET Abs IC50” value was 23.7 µM. In the case of B3, the “NanoBRET Abs IC50” value is reported as > 20 µM. For B4, the “NanoBRET Abs IC50” value was > 20 µM. B5 was tested, and the “NanoBRET Abs IC50” value was > 20 µM. For B6, the “NanoBRET Abs IC50” value was > 20 µM. In the case of B7, the “NanoBRET Abs IC50” value is reported as > 20 µM. B8 was tested, and the “NanoBRET Abs IC50” value was > 20 µM. In the case of B9, the “NanoBRET Abs IC50” value is reported as > 20 µM. In the case of B10, the “NanoBRET Abs IC50” value is reported as > 20 µM.

What follows are binders tested against T2, B-cat-Halo (beta-catenin HaloTag fusion …) (assay: cell-based or functional assay).
For B11, the “NanoBRET Abs IC50” value was > 20 µM. With B12 the “NanoBRET Abs IC50” value was 29.7 µM. For B13, the “NanoBRET Abs IC50” value was 10 µM. For B14, the “NanoBRET Abs IC50” value was > 20 µM.
